In the nanobody polyreactivity screen of Harvey et al. (2022):

Test: yeast display, Sf9 membrane polyspecificity reagent, FACS + sequencing; frameworks hold sequencing errors
In short: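 Sorting gates, low and high (top ~1%), were placed on anti-HA fluorescence to track expression and on streptavidin fluorescence to track reagent binding. A clone's polyreactivity label is taken from the gate it came out of. The reagent was 10% biotinylated, detergent-solubilized Sf9 membrane, applied for 1 hour at 4 °C to galactose-induced yeast display cells.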

Sequence: QVQLVETGGGLVQAGGSLRLSCPASGRTFAKYAMGRYRQAPGKERELVAAISDSGGSTYYEDSVKGRFTISRDNAKNTVYLQMNSLKPEDTAVYYCAADGRYTYYWGQGTQVTVSS
- polyreactivity (PSR sort gate): high polyreactivity

Sequence: QVQLVETGGGLVQAGGSLRLSCSASRLTFVYYTMGWYRQAPGKERELVAAITSSGGSTYYADSLKGRFTISRDNAKNTVYLQMNSLKPEDTAVSYCNAYWTYEFPSYDYWGPGTQVTVSS
- polyreactivity (PSR sort gate): low polyreactivity

Sequence: QVQLVETGGGLVQAGGSLRLSFAASGIISYHNAMGWYRQAPGKERELLAGITYSGGSTYYEDSVKGRFTISRVNAKNTVYLQMNSMKPEDTAVYFCAARVVYWTWSCLSKMDYWGQGTQVTVSS
- polyreactivity (PSR sort gate): high polyreactivity

Sequence: QVQLVETGGGLVQAGGSLRLSSAASGRTFYRYAMGWYRQAPGKDRELVATISRSGANTYADSVKGRFTISRDNAKNTVYLQMNSLKPEDTAVYYCNAGQYKGWGRMDYWGQGTQVTVSS
- polyreactivity (PSR sort gate): high polyreactivity

Sequence: QVQLVETGGGLVQAGGSLRLSSAASGSTFRDYDMGWYRQARGKERELVAAISLSGGRTHYADSVKGRFTISRDNAKNTVYLQMNSLKPEDTAVYYCAARNSGPVQYYYWGQGTHVTVSS
- polyreactivity (PSR sort gate): low polyreactivity

Sequence: QVQLVETGGGLVQAGGSLRLSSAASGSTFTYNVMGWYRQAPGKERELVAAISRIAGRTYYADSVKGRFTISRDTAKNTVYLQMNSLKPEDTAVYYCAALALKWRYDFWGQGTQVTVSS
- polyreactivity (PSR sort gate): high polyreactivity

Sequence: QVQLVETGGGLVQAGGSLSLSCAASGSTFAYYAMGWYRQAPGKERELVAGITWTGGSTYYADSVKGRFTISRDNAKNTVYLQMNSLKPEDTAVYYCAVTYPYGYEYDHWGQGTQVTVSS
- polyreactivity (PSR sort gate): low polyreactivity

Sequence: QVQLVETGGGLVQAGGSRRLICAATGRIFYWYAMGCYRQAPGKERELVATISSAGTTYYADSVKGRFTISRDNAKNTVYLQMNSLKQEDTAVYYCAVPRVGLHGIGSDYWGQGTQVTVSS
- polyreactivity (PSR sort gate): high polyreactivity

Sequence: QVQLVETGGGLVQAGGTLRLSCAASGSTFNAYAKGWYIQAPGKERELVAVISSSGGRTYYADSEKGRFTISRDNAKNTVYLQLNSLKPEDTAVYYCNADVKYLYNHWGQGTQVTVSS
- polyreactivity (PSR sort gate): high polyreactivity

Sequence: QVQLVETGGGLVQAGSSLRLSCAASGSTFIVYAMGWYRQAPGKEREFVAAITYRGGSSYYADSVKGRFTISRDNAKNTVYLQMNSLKPEDTAVYYCATETDRYPYIRRYQFPYYYWGQGTQVTVSS
- polyreactivity (PSR sort gate): high polyreactivity

Sequence: QVQLVETGGRKVQPGGSLRLSCAASRRTFDHNAMGWYRQAPGKERELVAAITWSGGITDYADSVKRPFTISRDNAKNTVYLEMFSLKPEDTAVWGQGTQVSVSS
- polyreactivity (PSR sort gate): low polyreactivity

Sequence: QVQLVETGRGLVQAGGSLRLSSAASGFTFGPYDMGWYIQAPGKERELVATIRSGDSTKYADSVKGRFTISRDNAKNTVYLQMNSLKPEDSAGYYCARDARASARRKRDDYWGQGTQVTVSS
- polyreactivity (PSR sort gate): low polyreactivity

Sequence: QVQLVETVGCLVQAGGSLRLSSAASGRIFPYNAMGRYRQAPGKERELVAAIDWRDNTYYADSVKGRFTISRDNATNTVYLQMNSLIPEDTAVYDCNVDYTDYFLNKYDYWGQGTQVTVSS
- polyreactivity (PSR sort gate): low polyreactivity

Sequence: QVQLVGSGGGLVQAGGSLRLSCAASGRTFDRNTMGWYRQAPGKERELVAAISSSGGSTYYADSVKGRFTISRDNAKNTVYLQMNSLKPEDTAVYYCAVLSRQYFRYGYDYWGQGTQVTVSS
- polyreactivity (PSR sort gate): high polyreactivity

Sequence: QVQLVGSGGGLVQAGGSLRLSCAASGRTFWTNAMGWYRQAPGKERELVAAIRNSGGRTYYADSVKGRFTISRDNAKNTVYLQMNSLKPEDTAVYYCNARSSIRPRQGGYEHWGQGTQVTVSS
- polyreactivity (PSR sort gate): low polyreactivity

Sequence: QVQLVKSGGGLVQAGGSLRLSCAASGFIIPEYTMGWYRPAPGKERELVAAISGSGGSTYYADSVKGRFTISRDNAKNTVYLQMNSLKPEDTAVYYCAASYAVSRYLQTYAHAHGYWGQGTQVTVSS
- polyreactivity (PSR sort gate): low polyreactivity

Sequence: QVQLVKSGGGLVQAGGSLRLSCAASGFIIPEYTMGWYRQAPVKERELVAAISGSGGSTYYADSVKGRFTISRDNAKNTVYLQMNSLKPEDTAVYYCAASYAVSRYLQTYAHAHGYWGQGTQVTVSS
- polyreactivity (PSR sort gate): low polyreactivity

Sequence: QVQLVKSGGGLVQAGGSLRLSCAASGSTFNKYTMGWYRQAPWKERELVAAITSGDSTYYADSVKGRFTISRDNAKNTVYLQMNSLKPEDTAVYYCAKSLRAYRHVIYGKALYSWGQGTQVTVSS
- polyreactivity (PSR sort gate): low polyreactivity

Sequence: QVQLVQSGGGLFQAGGSLRLSCAASGRTFEPNAMGWYRQAPGKERQLVAAITNGGSTSYADSVKGRFTISRDNAKNSVYLQMNSLKPEDTAVYYFAGDLGRNLLHTYYYWGQGTQVTVSS
- polyreactivity (PSR sort gate): low polyreactivity

Sequence: QVQLVQSGGGLVHAGGSLRLSCAASGRIFGINAMGWYIQAPGKERELVAAINWSGGSTYYADSVKGRFTISRDNAKNTVYLQMNSLKPEDTAVYYCADQKYQRVGYWGQGTQVTVSS
- polyreactivity (PSR sort gate): high polyreactivity

Sequence: QVQLVQSGGGLVQAGGSLRLSCAASGLIFYPYAMGWYRQAPGKERELVAAITSGDSTYYADSVKGRFTISRDNAKNTVYLQMNSLKPEDTAVYYCNAYQWGGRYWLVTYDYWGQGTQVTVSS
- polyreactivity (PSR sort gate): low polyreactivity

Sequence: QVQLVQSGGGLVQAGGSLRLSCAASGLTLRGNTMGWYRQAPGKEREMVADITASAGSTYYADSVKGRFTISRDNAKNTVYLQMNSLKPEDTAVYYCATVRYDVAAWAYSEYYYWGQGSQVTVSS
- polyreactivity (PSR sort gate): low polyreactivity

Sequence: QVQLVQSGGGLVQAGGSLRLSCAASGRIFADNAMGWYRQAPGKERELVADITYSGGSTYYADSVKGRFTISRDNAKNTVYLQMNILKPEDTVVYYCAAGRSSLYFPGYYYWGQGTLVTVSS
- polyreactivity (PSR sort gate): low polyreactivity

Sequence: QVQLVQSGGGLVQAGGSLRLSCAASGRIIGVNAMGWYRLAPGKERQLVADISSGRSTTYADSVKGRFTISRDNAKNTVYLQMNSLKPEDTALYYCNARFRFRYKFPSRHSWGQGSQVTVSS
- polyreactivity (PSR sort gate): high polyreactivity

Sequence: QVQLVQSGGGLVQAGGSLRLSCAASGRTFGYYAMGWYRQAPGQERELVAAITRTGGSTHYADSVKGRFTISRDNAKNTVYVQMNSLKPVDTAVYYCARDYRYTIPYDYWGQGTQVTVSS
- polyreactivity (PSR sort gate): low polyreactivity

Sequence: QVQLVQSGGGLVQAGGSLRLSCAASGRTFPIYAMGWYRQAPWKERELVAAITRGGRTNYADSVMGRFTISRDNAKNTVYLQMNSLKPEDTAVYYCDARTYGTYLYAEYDYWGQCTQVTVSS
- polyreactivity (PSR sort gate): high polyreactivity

Sequence: QVQLVQSGGGLVQAGGSLRLSCAASGSIFGYYAMGWYRQAPGKERELVAVITSVATTNYADSVKGRFTISRDNAKNTVYLQMNSLKPEDTAVYYCAARPQVKRGRYGYWGQGTQVTVSS
- polyreactivity (PSR sort gate): low polyreactivity

Sequence: QVQLVQSGGGLVQAGGSLRLSCAASGSTFWMNAMGWYRQAPGKEREFVAAITVRGGSTYYADSVKGRFTISRDNAKNTVYLQMNSLKPEDTAVYYCNRPSSLAWPWTGSFSRYDYWGQGTQVTVSS
- polyreactivity (PSR sort gate): low polyreactivity

Sequence: QVQLVQSGGGLVQAGGSLRLSCAASGYTIYLKAMGWNRQAPGKERELVAAITGSGDDTYYADSVKGRFTISRDNAKNTVYLQMKIMIPEDTAVYYCAARPYYTSSYKDYEYWGQGTQVTVSS
- polyreactivity (PSR sort gate): high polyreactivity

Sequence: QVQLVQSGGGLVQAGGSLRLSCAASQNAMGWYRQAPGKERELVAAISKGGGRTYYADSVKGRFTISRDNAKNTVYLQMNSLKPEDTAVYYCNARYYSSQDADRHEYWGQGTQVTVSS
- polyreactivity (PSR sort gate): high polyreactivity

Sequence: QVQLVQSVGGLVQAGGSLRLSSAASGSTFTVYAMGWYRQAPGKERELVAAISWRGGSTYYADSVKGRFTISRDNAKKTVYLQMNSLKPEDTAVYYCAADGLDIAPYGYGYWGQGTQVTVSS
- polyreactivity (PSR sort gate): low polyreactivity

Sequence: QVQLVQSWRGLVQAGASLRLSCAASGRIFPGYAMGWYREAPGKERELDASSSRTGRTNYADSVKGRFTISRVNAKNTVYLQMNRLKPEYTAVYYCANASPWYFWGYDYWGQGSQVTVSS
- polyreactivity (PSR sort gate): low polyreactivity
